# Measured values as given in patent US6051698.
# Read-outs that look alike come from different tables or passages of the source.
# Legend:
# [1] = test system: T1, VEGF165 (Homo sapiens), P15692-4; assay: filter; conditions: 2'-F pyrimidines, 2'-OH purines, 37 C
# T1 sequence: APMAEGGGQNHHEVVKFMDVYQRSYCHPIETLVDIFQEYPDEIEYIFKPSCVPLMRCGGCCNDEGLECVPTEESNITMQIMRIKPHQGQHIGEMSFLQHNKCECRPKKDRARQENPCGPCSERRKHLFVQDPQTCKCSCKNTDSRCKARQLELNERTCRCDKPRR
# [2] = test system: VEGF165 (Homo sapiens), P15692-4; conditions: 2'-NH2 pyrimidines, 2'-OMe purines; CITED US 5811533; cited from earlier work
Substance,Kd [1] [nM],Kd ([1]; single determination) [nM],other results
GGGAGGACGAUGCGGYGAACCGAUGGAAUUUUUGGACGCUCGCCUCAGACGACUCGCCCGA [VP30.2],0.01,,
GGGAGGACGAUGCGGAGAAUCAGUGAAUGCUUAUAAAUCUCGYGUCAGACGACUCGCCCGA [VT30.3],,0.005,
NX-213,,,Kd [2]: 0.14 nM
GGGAGGACGAUGCGGCGGYACUUUGGAAGAAUUGAAUUUCCCGCUCAGACGACUCGCCCGA [VP30.26],,0.01,
GGGAGGACGAUGCGGAYCAACCGAUUGACGUUAUGGGACGCUGGUCAGACGACUCGCCCGA [VP30.5],,0.008,
GGGAGGACGAUGCGGUAGGAAGAAUUGGAAGCGCAUUUUCCUCGYCAGACGACUCGCCCGA [VP30.22],0.02,,
